The record followed here is patent US20240076386A1 (Pfizer, published 2024).

The term EC50 denotes the midpoint of the concentration-response curve.

Where a chain is given by its changes, count along the chain named.

For assay [1], the target named is T1, human E-selectin, cell-surface expressed (human, UniProt P16581 22-610).
T1 construct: also called CHO-human E-selectin cells; human CHO-E
T1 sequence: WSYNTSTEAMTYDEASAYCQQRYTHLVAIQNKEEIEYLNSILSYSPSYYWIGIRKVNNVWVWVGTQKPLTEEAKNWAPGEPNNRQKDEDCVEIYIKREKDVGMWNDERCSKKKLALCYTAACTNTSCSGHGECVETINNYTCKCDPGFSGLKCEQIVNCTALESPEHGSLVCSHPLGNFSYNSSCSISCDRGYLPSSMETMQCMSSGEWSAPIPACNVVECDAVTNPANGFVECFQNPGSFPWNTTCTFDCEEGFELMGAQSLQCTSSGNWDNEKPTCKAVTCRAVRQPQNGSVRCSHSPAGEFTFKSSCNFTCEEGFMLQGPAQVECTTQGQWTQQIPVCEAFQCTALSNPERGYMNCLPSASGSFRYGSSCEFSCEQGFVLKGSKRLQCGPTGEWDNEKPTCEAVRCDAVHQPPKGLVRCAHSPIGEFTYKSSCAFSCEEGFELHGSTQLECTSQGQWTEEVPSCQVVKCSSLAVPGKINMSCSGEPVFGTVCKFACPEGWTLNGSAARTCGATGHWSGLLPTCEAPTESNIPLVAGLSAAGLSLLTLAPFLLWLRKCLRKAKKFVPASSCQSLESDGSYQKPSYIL
Put plainly: flow cytometry, CHO cells. Here is the method:
CHO cell lines expressing human E-selectin were detached from confluent flasks using enzyme-free Cell Dissociation Buffer (GIBCO, 13151014). Growth media was immediately added to the detached cells, then centrifuged at 300×g for 5 minutes at room temperature to pellet the cells. The cells were then resuspended in cold CHO buffer consisting of phosphate buffered saline (PBS), pH 7.4 containing bovine serum albumin (BSA; Sigma-Aldrich, A³⁰⁵⁹) at final concentration of 1%, calcium chloride at final concentration of 1 mM, and sodium azide at a final concentration of 0.1%.
Binding studies with CHO cells were performed in duplicate using two rows of a 96-well round bottom plate, whereas, binding studies with primary endothelial cells were performed in a single row of a 96-well V-bottom plate. The plates were centrifuged at 300×g for 2 minutes at 4° C. and the cells were resuspended and blocked by incubation in the CHO buffer for 10 minutes on wet ice. After incubation, the cells were centrifuged at 300×g for 2 minutes at 4° C. to remove the buffer. […] After incubation with the antibody, the cells were washed three times by centrifugation at 300×g for 1 minute at 4° C. and resuspended in cold CHO buffer. The washed cells were resuspended and incubated with 100 μL of 1:1000 dilution of AlexaFluor647-conjugated goat anti-human F(ab′)₂ Fragment (Fcγ fragment specific antibody, [Jackson Innnnunoresearch, 109-606-170] for 45 minutes (CHO cells) or 30 minutes (endothelial cells) on wet ice. The cells were washed three or four times prior to resuspension in CHO buffer for flow cytometric analysis. A Becton Dickinson LSRFortessa instrument using 640 nanometer laser line was used to acquire cell fluorescence data. Geometric mean fluorescence of cells was analyzed by FlowJo software package (FlowJo, LLC) and plotted against antibody concentration. The estimated EC₅₀ values were calculated using nonlinear regression analysis in the Prism suite (GraphPad, version 8).
(Flow cytometry measures light scatter and fluorescence of single cells or particles in a stream.)

For assay [2], the target named is T2, soluble recombinant human P-selectin (human, UniProt P16109 42-771, limits assumed).
T2 sequence (looked up): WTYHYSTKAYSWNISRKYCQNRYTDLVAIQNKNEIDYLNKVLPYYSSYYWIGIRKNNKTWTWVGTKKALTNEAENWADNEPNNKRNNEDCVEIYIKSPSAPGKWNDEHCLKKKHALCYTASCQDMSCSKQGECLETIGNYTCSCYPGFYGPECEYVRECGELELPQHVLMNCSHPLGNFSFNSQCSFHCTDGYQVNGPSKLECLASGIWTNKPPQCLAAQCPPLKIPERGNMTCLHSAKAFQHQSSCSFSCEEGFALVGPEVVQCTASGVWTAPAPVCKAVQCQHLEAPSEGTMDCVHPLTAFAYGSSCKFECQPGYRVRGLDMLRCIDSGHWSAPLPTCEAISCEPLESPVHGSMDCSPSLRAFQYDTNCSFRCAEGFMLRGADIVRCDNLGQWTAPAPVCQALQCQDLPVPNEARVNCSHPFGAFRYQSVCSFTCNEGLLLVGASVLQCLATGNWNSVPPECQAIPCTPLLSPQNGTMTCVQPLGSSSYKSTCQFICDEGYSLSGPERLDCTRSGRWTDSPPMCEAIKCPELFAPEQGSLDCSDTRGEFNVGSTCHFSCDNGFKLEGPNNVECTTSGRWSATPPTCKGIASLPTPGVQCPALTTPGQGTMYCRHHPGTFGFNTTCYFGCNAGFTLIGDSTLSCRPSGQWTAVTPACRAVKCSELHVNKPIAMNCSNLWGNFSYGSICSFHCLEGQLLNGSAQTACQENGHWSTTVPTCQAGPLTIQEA
Put plainly: direct binding ELISA on immobilized human P-selectin, absorbance at 450 nm. Here is the method:
Recombinant histidine tagged human P-, E- or L-selectin (Sino Biologicals), mouse E-selectin (Sino Biologicals), rat E-selectin (Sino Biologicals) and Cynomolgus monkey E-selectin (Sino Biologicals) stock solutions were prepared to a final concentration of 1 μg/mL in phosphate buffered saline without calcium and magnesium. Controls included an L-selectin directed antibody (BioLegend; 304811) or P-selectin directed antibody or a negative control IgG. One hundred μL per well of the diluted recombinant selectin proteins were added into a Ni-NTA HisSorb 96 well plate (Qiagen; 35061). Plates were incubated on an orbital shaker at room temperature for 2 hours. Following the incubation, the plates were washed 3 times with 200 μL of wash buffer (50 mM TRIS [trisaminomethane]; 150 mM sodium chloride; 0.05% polysorbate 20, pH 7.4). To decrease nonspecific binding, plates were treated with 200 μL of blocking buffer (BD Opteia buffer; 555213; BD Biosciences), incubated on an orbital shaker for 1 hour at room temperature and washed as described above. […] One hundred μL specific detection antibodies (described below) were added and incubated for 1 hour: [0556] […] Anti L-selectin and anti-rat-E-selectin antibodies were detected using 1 to 25000 dilution of Peroxidase-conjugated AffiniPure Goat Anti-Mouse IgG (H+L); (Jackson ImnnunoResearch Lab).
Plates were washed and 100 μL per well of 1-Step Ultra TMB substrate (Thermo Scientific) was added and incubated for 5 minutes at room temperature. Reactions were stopped with 100 μL of 2 M sulfuric acid and absorbance read at 450 nm (Spectramax M5e).
For orientation: ELISA stands for enzyme-linked immunosorbent assay.

B1: humanized anti-E-selectin antibody 0841 (antibody, human IgG1, kappa, V domains shown)
VH: EVQLVESGGGLVQPGGSLRLSCAASGYNIRSSYMHWVRQAPGKGLEWVARIDPANGNTIYAEKFKIRFTISADNAKNSAYLQMNSLRAEDTAVYYCAMDLYSTSEYWGQGTLVTVSS
VL: DIQMTQSPSSLSASVGDRVTITCKTSQNINRYLNWYQQKPGKAPKLLIYNANSLQTGVPSRFSGSGSGTDFTLTISSLQPEDFATYFCLQDNSWPLTFGQGTKVEIKR
notes: effector-null human IgG1, kappa
The molecule B1 gave an EC50 in assay [1] of 0.71 nM. The binding result in assay [2] is given as “no binding (tested: 10 ug/ml)”.

B2: optimized anti-E-selectin antibody 1282 (antibody, human IgG1, kappa, V domains shown)
VH: B1 VH with N28A, S32A, A61V, E62D, K63S, F64V, K65E, I66G
VL: B1 VL with N30E, N50A, N52S, T56S, S93A
notes: as for B1
B2 had an EC50 in assay [1] of 0.85 nM. In addition, the binding result in assay [2] is “no binding (tested: 10 ug/ml)”.

B3: optimized anti-E-selectin antibody 1444 (antibody, human IgG1, kappa, V domains shown)
VH: B1 VH with N28A, S32A, A61V, E62D, K63S, F64V, K65T, I66G
VL: B1 VL with N30E, N50A, N52S, T56S, S93A
notes: as for B1
Regarding B3, in assay [1], it took 0.66 nM to reach a half-maximal effect (EC50). In addition, the binding result in assay [2] was “no binding (tested: 10 ug/ml)”.

B4: optimized anti-E-selectin antibody 1284 (antibody, human IgG1, kappa, V domains shown)
VH: B1 VH with N28A, S32A, A61V, K63S, F64V, K65E, I66G
VL: B1 VL with N30E, N50A, N52S, T56S, S93A
notes: as for B1
With B4, the response in assay [1] was half-maximal at 0.64 nM (EC50). The binding result in assay [2] is recorded as “no binding (tested: 10 ug/ml)”.

B5: optimized anti-E-selectin antibody 1448 (antibody, human IgG1, kappa, V domains shown)
VH: B1 VH with N28A, S32A, A61V, E62D, K63S, F64V, I66E
VL: B1 VL with N30E, N50A, N52S, T56S, S93A
notes: as for B1
Consider B5, for which it took 0.75 nM to reach a half-maximal effect in assay [1] (EC50). Moreover, the binding result in assay [2] was “no binding (tested: 10 ug/ml)”.
